Data from patent publication US9327008B2, “Cell-permeant peptide-based inhibitor of kinases” (Purdue Research Foundation, priority 2008, dated 2016).

Tests used:
Assay type in all cases: biochemical
[1] = molecular target: T1, Flt3 (Homo sapiens, UniProt P36888); assay: Millipore radiometric kinase activity assay, Flt3 (h)
T1 construct: purchased Millipore (assay service)
T1 sequence (P36888 27-993): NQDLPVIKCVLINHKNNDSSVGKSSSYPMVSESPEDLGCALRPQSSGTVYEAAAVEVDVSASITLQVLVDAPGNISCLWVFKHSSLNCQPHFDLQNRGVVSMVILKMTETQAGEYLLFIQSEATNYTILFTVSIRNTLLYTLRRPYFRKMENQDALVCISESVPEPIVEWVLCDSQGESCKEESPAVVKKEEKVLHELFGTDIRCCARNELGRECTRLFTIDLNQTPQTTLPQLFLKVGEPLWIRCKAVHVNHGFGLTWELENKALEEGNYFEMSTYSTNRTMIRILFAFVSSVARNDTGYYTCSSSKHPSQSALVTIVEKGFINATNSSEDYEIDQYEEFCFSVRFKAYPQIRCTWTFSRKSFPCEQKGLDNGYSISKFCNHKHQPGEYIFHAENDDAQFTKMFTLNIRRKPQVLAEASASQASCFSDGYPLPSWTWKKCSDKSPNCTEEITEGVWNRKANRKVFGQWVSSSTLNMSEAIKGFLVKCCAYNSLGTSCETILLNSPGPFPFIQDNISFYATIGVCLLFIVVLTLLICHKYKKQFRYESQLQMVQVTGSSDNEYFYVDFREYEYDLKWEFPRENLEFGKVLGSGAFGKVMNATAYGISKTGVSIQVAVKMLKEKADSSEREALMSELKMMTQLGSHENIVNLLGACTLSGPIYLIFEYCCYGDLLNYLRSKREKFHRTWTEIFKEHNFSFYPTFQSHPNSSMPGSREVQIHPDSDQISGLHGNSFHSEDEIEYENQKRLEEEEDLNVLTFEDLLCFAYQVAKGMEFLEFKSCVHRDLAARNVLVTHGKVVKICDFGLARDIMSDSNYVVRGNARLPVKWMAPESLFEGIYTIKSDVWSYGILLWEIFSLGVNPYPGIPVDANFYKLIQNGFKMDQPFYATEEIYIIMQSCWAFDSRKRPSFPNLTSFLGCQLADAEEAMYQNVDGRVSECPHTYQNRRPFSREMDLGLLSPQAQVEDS
Protocol: (§1) A commercial radiometric assay service (Millipore, Billerica, Mass.) was used to test the specificity and potency of peptides containing a coupled transduction domain and therapeutic domain, hereinafter “complete peptides”). In these assays, if the kinase is not inhibited by an inhibitor peptide, a positively charged substrate is phosphorylated with a radiolabeled phosphate group from an ATP.
In a final reaction volume of 25 μL, Flt3 (h) (5-10 mU) is incubated with 8 mM MOPS pH 7.0, 0.2 mM EDTA, 50 μM […] [SEQ ID NO: 48], 10 mM MgAcetate and [γ-^33P-ATP] (specific activity approx. 500 cpm/pmol, concentration as required). The reaction is initiated by the addition of the MgATP mix. After incubation for 40 minutes at room temperature, the reaction is stopped by the addition of 5 μL of a 3% phosphoric acid solution. 10 μL of the reaction is then spotted onto a P30 filtermat and washed three times for 5 minutes in 75 mM phosphoric acid and once in methanol prior to drying and scintillation counting.
(§2) IC50 values for inhibitor peptides were determined using Millipore's IC50Profiler Express service. The IC50 value was estimated from a 10-point curve of one-half log dilutions. For peptides tested for specificity, the concentration of the peptides that inhibited approximately 95% of MK2 activity was chosen to profile against a battery of kinases related to MK2, cell viability, or human disease from MilliporeKinaseProfiler service. In both assays, compounds were supplied in dimethylsulfoxide (DMSO). Every kinase activity measurement was conducted in duplicate.
(§3) Therapeutic inhibitor peptides were assayed for activity against human kinases related to MK2, cell viability, or human disease. The assays were performed using concentrations of therapeutic inhibitor peptides that yielded 2% to 8% of normal MK2 activity. Error is reported as the standard deviation between 2 samples, and “c” is rat AMPK whereas all other kinases used are human kinases.

[2] = molecular target: T2, Aurora-A (Homo sapiens, UniProt O14965); assay: Millipore radiometric kinase activity assay, Aurora-A (h)
T2 construct: purchased Millipore (assay service)
T2 sequence (O14965 1-403): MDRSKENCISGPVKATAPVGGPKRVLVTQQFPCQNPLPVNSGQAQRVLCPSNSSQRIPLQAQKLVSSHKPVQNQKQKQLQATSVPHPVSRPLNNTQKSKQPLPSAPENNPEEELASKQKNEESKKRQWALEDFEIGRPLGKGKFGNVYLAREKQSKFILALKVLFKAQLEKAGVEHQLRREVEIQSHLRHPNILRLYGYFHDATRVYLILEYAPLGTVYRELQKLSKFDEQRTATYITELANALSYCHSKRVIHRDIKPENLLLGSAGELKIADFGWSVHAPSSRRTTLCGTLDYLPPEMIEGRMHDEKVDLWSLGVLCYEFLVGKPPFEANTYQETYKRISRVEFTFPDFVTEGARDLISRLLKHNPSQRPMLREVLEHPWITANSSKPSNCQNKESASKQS
Protocol: as §1
In a final reaction volume of 25 μL, Aurora-A (h) (5-10 mU) is incubated with 8 mM MOPS pH 7.0, 0.2 mM EDTA, 200 μM LRRASLG [SEQ ID NO: 50] (Kemptide), 10 mM MgAcetate and [γ-^33P-ATP] (specific activity approx. 500 cpm/pmol, concentration as required). The reaction is initiated by the addition of the MgATP mix. After incubation for 40 minutes at room temperature, the reaction is stopped by the addition of 5 μL of a 3% phosphoric acid solution. 10 μL of the reaction is then spotted onto a P30 filtermat and washed three times for 5 minutes in 50 mM phosphoric acid and once in methanol prior to drying and scintillation counting.
as §2, §3

[3] = molecular target: T3, LIMK1 (Homo sapiens, UniProt P53667); assay: Millipore radiometric kinase activity assay, LIMK1 (h)
T3 construct: purchased Millipore (radiometric assay service)
T3 sequence (P53667 whole entry): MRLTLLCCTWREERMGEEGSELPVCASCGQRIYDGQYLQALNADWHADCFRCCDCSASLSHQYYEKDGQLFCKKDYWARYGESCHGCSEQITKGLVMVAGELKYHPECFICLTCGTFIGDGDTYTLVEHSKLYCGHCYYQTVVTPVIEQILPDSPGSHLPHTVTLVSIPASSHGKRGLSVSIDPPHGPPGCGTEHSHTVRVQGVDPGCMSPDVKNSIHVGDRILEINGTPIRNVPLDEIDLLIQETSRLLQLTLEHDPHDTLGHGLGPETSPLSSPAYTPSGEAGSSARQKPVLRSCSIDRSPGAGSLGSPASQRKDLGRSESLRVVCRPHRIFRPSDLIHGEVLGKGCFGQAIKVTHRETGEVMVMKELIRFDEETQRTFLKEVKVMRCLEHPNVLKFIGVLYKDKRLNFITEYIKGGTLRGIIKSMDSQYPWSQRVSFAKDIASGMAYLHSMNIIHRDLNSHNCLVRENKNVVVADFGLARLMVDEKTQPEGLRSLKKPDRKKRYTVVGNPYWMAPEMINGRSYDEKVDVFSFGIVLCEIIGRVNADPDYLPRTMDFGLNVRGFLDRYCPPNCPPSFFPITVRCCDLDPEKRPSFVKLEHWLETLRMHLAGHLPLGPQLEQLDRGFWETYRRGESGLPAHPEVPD
Protocol: as §1
In a final reaction volume of 25 μL, LIMK1 (h) (5-10 mU) is incubated with 8 mM MOPS pH 7.0, 0.2 mM EDTA, 0.6 mg/mL cofilin, 10 mM MgAcetate and [γ-^33P-ATP] (specific activity approx. 500 cpm/pmol, concentration as required). The reaction is initiated by the addition of the MgATP mix. After incubation for 40 minutes at room temperature, the reaction is stopped by the addition of 5 μL of a 3% phosphoric acid solution. 10 μL of the reaction is then spotted onto a P30 filtermat and washed three times for 5 minutes in 75 mM phosphoric acid and once in methanol prior to drying and scintillation counting.
as §2, §3

| Sequence | Flt3 Kinase Activity (%) (+SD %) ([1]; peptide 100 μM) | Aurora-A Kinase Activity (%) (+SD %) ([2]; peptide 100 μM) | LIMK1 Kinase Activity (%) (+SD %) ([3]; peptide 100 μM) | Flt3 Kinase Activity (%) (+SD %) ([1]; peptide 30 μM) | Aurora-A Kinase Activity (%) (+SD %) ([2]; peptide 30 μM) | LIMK1 Kinase Activity (%) (+SD %) ([3]; peptide 30 μM) |
| --- | --- | --- | --- | --- | --- | --- |
| KAFAKLAARLYRKALARQLGVAA | 20 (3) % | 60 (1) % | 93 (3) % |  |  |  |
| WLRRIKAWLRRIKALNRQLGVAA | 14 (0) % | 65 (5) % | 92 (2) % | 38 (1) % | 46 (1) % | 89 (3) % |
